# Assay results as given in patent US9579300.
# Experiments:
# purified αVβ3 integrin [1] = target: purified αVβ3 integrin (UniProt P06756); assay: [125I]-T4 radioligand displacement on 2 µg purified αVβ3, native gel band intensity; LM609 at 1 µg/ml
# purified αVβ3 integrin [2] = target: purified αVβ3 integrin (UniProt P06756); assay: [125I]-T4 radioligand displacement on purified αVβ3, native gel band intensity; LM609 at 4 µg/ml
# purified αVβ3 integrin [3] = target: purified αVβ3 integrin (UniProt P06756); assay: [125I]-T4 radioligand displacement on purified αVβ3, native gel band intensity; LM609 at 2 µg/ml
# purified αVβ3 integrin [4] = target: purified αVβ3 integrin (UniProt P06756); assay: [125I]-T4 radioligand displacement on purified αVβ3, native gel band intensity; LM609 at 8 µg/ml
# purified αVβ3 integrin [5] = target: purified αVβ3 integrin (UniProt P06756); assay: [125I]-T4 radioligand displacement on purified αVβ3, native gel band intensity; SC7312 at 2 µg/ml
# purified αVβ3 integrin [6] = target: purified αVβ3 integrin (UniProt P06756); assay: [125I]-T4 radioligand displacement on purified αVβ3, native gel band intensity; SC7312 at 8 µg/ml
# purified αVβ3 integrin [7] = target: purified αVβ3 integrin (UniProt P06756); assay: [125I]-T4 radioligand displacement on purified αVβ3, native gel band intensity; SC7312 at 4 µg/ml
# purified αVβ3 integrin [8] = target: purified αVβ3 integrin (UniProt P06756); assay: [125I]-T4 radioligand displacement on purified αVβ3, native gel band intensity; SC7312 at 8 µg/ml (figure legend; Example 17 prints 59%)
# purified αVβ3 integrin [9] = target: purified αVβ3 integrin (UniProt P06756); assay: [125I]-T4 radioligand displacement on purified αVβ3, native gel band intensity; SC7312 at 1 µg/ml
# Chain of UniProt P06756 (P06756 31-1048, form in doubt, chain 1 of 2): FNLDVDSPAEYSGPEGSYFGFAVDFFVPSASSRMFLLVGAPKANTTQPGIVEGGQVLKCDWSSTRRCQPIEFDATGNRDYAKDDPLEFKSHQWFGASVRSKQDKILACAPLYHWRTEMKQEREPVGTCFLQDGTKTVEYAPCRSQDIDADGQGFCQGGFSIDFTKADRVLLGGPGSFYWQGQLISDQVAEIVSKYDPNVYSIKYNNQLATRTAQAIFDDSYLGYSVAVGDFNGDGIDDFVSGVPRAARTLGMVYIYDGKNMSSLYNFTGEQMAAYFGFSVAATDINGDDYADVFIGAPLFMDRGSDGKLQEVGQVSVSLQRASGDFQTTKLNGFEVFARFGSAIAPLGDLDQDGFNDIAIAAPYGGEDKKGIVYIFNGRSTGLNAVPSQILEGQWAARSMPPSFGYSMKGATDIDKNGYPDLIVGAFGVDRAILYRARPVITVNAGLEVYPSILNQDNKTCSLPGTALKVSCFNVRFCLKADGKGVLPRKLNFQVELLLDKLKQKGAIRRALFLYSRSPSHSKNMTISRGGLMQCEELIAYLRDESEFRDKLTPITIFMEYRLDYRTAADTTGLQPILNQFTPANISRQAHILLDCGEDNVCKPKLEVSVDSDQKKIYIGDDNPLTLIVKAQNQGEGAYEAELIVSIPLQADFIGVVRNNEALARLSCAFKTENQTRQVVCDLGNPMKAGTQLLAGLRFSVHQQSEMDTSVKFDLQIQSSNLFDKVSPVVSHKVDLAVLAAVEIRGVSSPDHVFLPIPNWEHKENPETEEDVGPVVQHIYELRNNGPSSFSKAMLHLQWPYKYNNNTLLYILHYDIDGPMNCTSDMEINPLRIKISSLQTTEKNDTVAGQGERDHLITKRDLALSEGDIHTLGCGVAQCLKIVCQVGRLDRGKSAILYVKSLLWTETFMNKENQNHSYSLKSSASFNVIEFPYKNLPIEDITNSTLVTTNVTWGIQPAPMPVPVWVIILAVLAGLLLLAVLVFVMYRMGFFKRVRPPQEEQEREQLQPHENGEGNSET
# Chain of UniProt P06756 (P05106 27-788, form in doubt, chain 2 of 2, further chain): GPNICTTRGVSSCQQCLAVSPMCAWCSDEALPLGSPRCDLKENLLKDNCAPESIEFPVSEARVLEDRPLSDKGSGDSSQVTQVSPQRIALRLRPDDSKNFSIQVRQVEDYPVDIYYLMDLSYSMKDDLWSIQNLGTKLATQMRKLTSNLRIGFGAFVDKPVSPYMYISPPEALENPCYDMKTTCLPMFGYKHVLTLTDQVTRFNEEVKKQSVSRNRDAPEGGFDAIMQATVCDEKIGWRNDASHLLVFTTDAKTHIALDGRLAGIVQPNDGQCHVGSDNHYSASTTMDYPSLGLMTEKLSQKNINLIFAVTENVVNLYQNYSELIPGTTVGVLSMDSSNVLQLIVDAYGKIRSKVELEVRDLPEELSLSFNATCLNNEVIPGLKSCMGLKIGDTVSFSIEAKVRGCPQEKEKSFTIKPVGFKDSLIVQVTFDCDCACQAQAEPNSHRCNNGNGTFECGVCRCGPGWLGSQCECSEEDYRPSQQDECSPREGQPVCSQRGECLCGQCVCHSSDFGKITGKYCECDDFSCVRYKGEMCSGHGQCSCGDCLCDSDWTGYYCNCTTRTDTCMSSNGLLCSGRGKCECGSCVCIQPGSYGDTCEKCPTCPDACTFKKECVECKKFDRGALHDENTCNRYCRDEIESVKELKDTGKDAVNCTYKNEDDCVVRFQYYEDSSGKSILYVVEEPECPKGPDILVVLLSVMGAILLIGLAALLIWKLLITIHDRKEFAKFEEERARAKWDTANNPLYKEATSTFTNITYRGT
percent reduction of [125I]T4-αVβ3 complex formation (purified αVβ3 integrin [1]),percent reduction of [125I]T4-αVβ3 band intensity (purified αVβ3 integrin [2]),percent reduction of [125I]T4-αVβ3 band intensity (purified αVβ3 integrin [3]),percent reduction of [125I]T4-αVβ3 band intensity (purified αVβ3 integrin [4]),percent reduction of T4 binding to αVβ3 (purified αVβ3 integrin [5]),percent reduction of T4 binding to αVβ3 (purified αVβ3 integrin [6]),percent reduction of T4 binding to αVβ3 (purified αVβ3 integrin [7]),percent reduction of T4 binding to αVβ3 (purified αVβ3 integrin [8]),percent reduction of T4 binding to αVβ3 (purified αVβ3 integrin [9]),Substance
52%,63%,64%,81%,–,–,–,–,–,monoclonal antibody LM609 to αVβ3
–,–,–,–,46%,59%,47%,58%,20%,monoclonal antibody SC7312 to αVβ3
